Earlier results as cited in paper PMC5113071.
Where two headings read alike, the source gives them in different places.

Experiments:
NRP1 (Homo sapiens) [1] = target: NRP1 (Homo sapiens) (UniProt O14786)
[2] = target: alpha-2-macroglobulin (Homo sapiens) (UniProt P01023)
VEGFR1 (Homo sapiens) = VEGFR1 (Homo sapiens) (UniProt P17948)
VEGFR2 (Homo sapiens) = VEGFR2 (Homo sapiens) (UniProt P35968)
[3] = target: alpha-2-macroglobulin fast form (Homo sapiens) (UniProt P01023)
NRP1 (Homo sapiens) [4] = target: NRP1 (Homo sapiens) (UniProt O14786); remark: listed apart in the source

Sequence of UniProt P35968 (P35968 20-1356): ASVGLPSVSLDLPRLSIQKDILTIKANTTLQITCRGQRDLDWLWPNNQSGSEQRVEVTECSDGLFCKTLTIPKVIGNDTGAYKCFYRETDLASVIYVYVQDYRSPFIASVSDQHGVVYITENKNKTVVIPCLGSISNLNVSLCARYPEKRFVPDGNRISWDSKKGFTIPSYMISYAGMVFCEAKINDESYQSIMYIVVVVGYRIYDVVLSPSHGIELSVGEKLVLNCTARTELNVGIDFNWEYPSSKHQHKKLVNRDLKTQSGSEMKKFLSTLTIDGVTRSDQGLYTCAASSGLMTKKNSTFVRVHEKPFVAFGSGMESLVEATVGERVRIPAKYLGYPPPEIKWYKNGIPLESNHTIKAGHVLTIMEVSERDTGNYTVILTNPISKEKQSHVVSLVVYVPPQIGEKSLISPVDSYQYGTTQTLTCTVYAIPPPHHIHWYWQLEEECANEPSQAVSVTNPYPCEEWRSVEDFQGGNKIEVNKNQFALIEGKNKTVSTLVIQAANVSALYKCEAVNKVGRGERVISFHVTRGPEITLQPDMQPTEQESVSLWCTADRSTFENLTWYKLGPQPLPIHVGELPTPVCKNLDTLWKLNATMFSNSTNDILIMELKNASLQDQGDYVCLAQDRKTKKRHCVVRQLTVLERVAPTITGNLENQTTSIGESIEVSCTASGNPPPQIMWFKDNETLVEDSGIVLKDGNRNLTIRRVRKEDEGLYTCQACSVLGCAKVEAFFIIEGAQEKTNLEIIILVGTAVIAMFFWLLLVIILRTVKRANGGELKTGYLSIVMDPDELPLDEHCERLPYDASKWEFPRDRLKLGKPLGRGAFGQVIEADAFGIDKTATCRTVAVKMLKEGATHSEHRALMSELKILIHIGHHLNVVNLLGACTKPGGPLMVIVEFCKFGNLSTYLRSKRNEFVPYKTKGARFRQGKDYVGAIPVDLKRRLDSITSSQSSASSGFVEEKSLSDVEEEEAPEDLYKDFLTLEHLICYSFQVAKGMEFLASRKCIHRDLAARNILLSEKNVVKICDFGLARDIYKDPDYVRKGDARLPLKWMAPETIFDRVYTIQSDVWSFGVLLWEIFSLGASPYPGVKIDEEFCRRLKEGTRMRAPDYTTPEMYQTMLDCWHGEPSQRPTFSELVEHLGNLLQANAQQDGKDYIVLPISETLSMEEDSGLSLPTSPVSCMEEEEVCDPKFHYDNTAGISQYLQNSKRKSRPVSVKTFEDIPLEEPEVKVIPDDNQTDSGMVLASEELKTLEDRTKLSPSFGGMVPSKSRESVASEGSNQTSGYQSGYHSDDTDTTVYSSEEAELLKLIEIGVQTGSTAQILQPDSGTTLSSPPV

Substance: VEGF165a and VEGF121 (from UniProt P15692)
- Kd (NRP1 (Homo sapiens) [1]): 0.312 nM

Substance: VEGF165a, VEGF165b and VEGF121 (from UniProt P15692)
- Kd [2]: 4 µM
- Kd (VEGFR1 (Homo sapiens)): 0.033 nM
- Kd (VEGFR2 (Homo sapiens)): 0.1 nM
- Kd [3]: 420 nM

Substance: sVEGFR1 (from UniProt P17948)
- Kd (NRP1 (Homo sapiens) [4]): 1.8 nM
